Key:
[1] = system: MS2 coat protein; experiment: apparent KD of MS2 coat protein, switch OFF state (with FMN for OFF switches, without FMN for ON switches); designed switch direction (-1 OFF switch, 1 ON switch): -1; higher = weaker reporter binding; settings: FMN input: 0 or 200 uM; Eterna round: R93 (includes R88 designs)
Method in brief: (§1)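 In 100 mM Tris-HCl pH 7.5 with 80 mM KCl and 4 mM MgCl2, and without or with constant ligand, SNAP-549-labelled MS2 coat protein was titrated in twofold steps from 0.7 or 1.5 nM to 3 µM. Per-step times went from 0.8–1.5 h down to 10–20 min. The RNA switches were transcribed on-chip from Illumina sequencing clusters, and apparent KD is the per-design median of normalised cluster binding-curve fits.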

[2] = system: MS2 coat protein; experiment: apparent KD of MS2 coat protein, switch ON state; designed switch direction (-1 OFF switch, 1 ON switch): -1; higher = weaker reporter binding; settings: FMN input: 0 or 200 uM; Eterna round: R93 (includes R88 designs)
Method in brief: as §1

| Sequence | apparent KD of MS2 coat protein [1] | apparent KD of MS2 coat protein [2] |
| --- | --- | --- |
| AACAGGACAGGAUAUACAUGAGGAUCACCCAUGUGAGAAUUAAGUAGAUUACCACAGAGUAGAAGGGUCCUGGA [Ruby 96] | 0.0995 µM | 0.0477 µM |
| AAAAAACAUGAGGAUCACCCAUGUAAGGAUAUGCUAAAAAAAAAAAAAAAAAAAAAAUGCAGAAGGUACAAAAA [water's exclusion 1 again] | 0.0402 µM | 0.0404 µM |
| GAAGUGUUAGGAUAUCGAUGAAUAAUAAAACAAAGGAACAUUGAGAAGGAACAUGAGGAUCACCCAUGUAAAAC [May 82] | 0.0256 µM | 0.0334 µM |
| CUCAUGUGAGGAUAUGUACAGAAAAAAAUGGGUGAAACUGUACAGAAGGCACAUGAGGAUCACCCAUGUGCCAA [EX4 376: S S Pseudoknot 1] | 0.0163 µM | 0.0522 µM |
| GGUUGGCGAGGAUAUACAUGAGGAUCACCCAUGUGAGAGUAAAAAGUGAGAAAGAAAAGUAGAAGGCGCUGACG [salish99-ex3-46] | 0.0851 µM | 0.0271 µM |
| GGUUGGCGAGGAUAUACAUGAGGAUCACCCAUGUGAGAGAAAAAAGUGAGAAACAAAAGUAGAAGGCGCUGACG [salish99-ex3-26] | 0.657 µM | 0.0798 µM |
| AAAAAGCUAGGAUAUACGAAAAAAAAGGGUAGAAAAAAAAAACAUGAGGAUCACCCAUGUAGAAGGAGCAAAAA [Mat - Exclusion 2 - Tesla mod - D34] | 0.103 µM | 0.0515 µM |
| AACUGACAUGAGGAUCACCCAUGUCAGGAUAUGCAUCUUAGGAAAAAAAAACUAAGAUGCAGAAGGGACAUGGG [Design 3: Super Stable 3] | 0.0158 µM | 0.0168 µM |
| AAGAACAGAGGAUAUGCUAAAGAAAUAAAAAUAAAUAAAGAACAUGAGGAUCACCCAUGUAGAAGGCUGAAGAA [Seven kings] | 0.028 µM | 0.0283 µM |
| AAAAAACAUGAGGAUCACCCAUGUGAGGAUAUGACUUAAAUAAAGAAAGAAGAAAUAGUCAGAAGGCACAAAUA [Mat - Mod of Nando] | 0.0429 µM | 0.0286 µM |
| CUCAAGUAAGGAUAUUGAAGAAAAGAAGAGAAAGAAAAGAACAAGAAGGUACAUGAGGAUCACCCAUGUAAGAA [EteRNA is fun!] | 0.0166 µM | 0.0334 µM |
| AAAAAUGGAGGAUAUACAUGAGGAUCACCCAUGUGAAACAAAAAAAAAAACAAAAAAAGUAGAAGGCCAAAAAA [Gilly Gone Silly 2 - Jieux - Exclusion 3] | 0.0536 µM | 0.0367 µM |
| CAGUACUGAGGAUAUACAUGAGGAUCACCCAUGUGGUUAAGCUAGGAAACUAGCACAUGUAGAAGGCAGUACUG [Ex3: 814] | 0.0195 µM | 0.0501 µM |
| AAAGAUUGAGGAUAUACAUGAGGAUCACCCAUGUAAAAAAAAAAAAGGGUGGAAGAAAGUAGAAGGCAACAAAA [Ex 3 May 46] | 0.284 µM | 0.0806 µM |
| AGAAAGUCAGGAUAUACGAAUAAGAAUAAAGACGAGAUCGGACAUGAGGAUCACCCAUGUAGAAGGGACAAGAA [Diamond 17] | 0.0747 µM | 0.121 µM |
| AAGAUCAGAGGAUAUACAUAAGGUGAUGGAAACAUCGCCAAACAUGAGGAUCACCCAUGUAGAAGGCUGAUCAA [Mat - Exclusion 2 - JL mod - D61] | 0.0437 µM | 0.0357 µM |
| AGUGAGUGAGGAUAUUACUGAAGAAUAAAAGAAAUAACGAGUAAGAAGGCACAUGAGGAUCACCCAUGUACACA [May 62] | 0.024 µM | 0.0255 µM |
| AUAAUACAUGAGGAUCACCCAUGUCAGGAUAUGCUAAAAUUAAAAUUAAAUCAAAAAUGUAGAAGGGACUAAAU [Exclusion Z3] | 0.0429 µM | 0.0498 µM |
| GAAAAACAUGAGGAUCACCCAUGUCAGGAUAUCGAAAAAAAUAAAAAAGAAAAGAAAACGAGAAGGGACAAAAA [May 12] | 0.0456 µM | 0.0282 µM |
| AAAAAACAUGAGGAUCACCCAUGUCAGGAUAUGAACGAAAAUAAAUAAAAAUAAAAGUUCAGAAGGGACGAAAA [66%, Wbt, 17] | 0.0415 µM | 0.038 µM |
| AAGAAGACAGGAUAUACAUGAAAGAAAGAAAAGAAAAGAAAACAUGAGGAUCACCCAUGUAGAAGGGUCAAGAA [EteRNA is fun!] | 0.0349 µM | 0.0235 µM |
| UCCGGACAUGAGGAUCACCCAUGUGAGGAUAUAUAAAGUGGGACUGGAAACAGUCCCAAUAGAAGGCACAUGAA [Celaar] | 0.0196 µM | 0.0212 µM |
| AGCUACUGAGGAUAUACGAACAUGUCAAAAGACGUAAGGGAACAUGAGGAUCACCCAUGUAGAAGGCAGUAGCA [Diamond 49] | 0.0919 µM | 0.0445 µM |

Reference: the supplement of paper PMC9170038
